This is an account of results in PMC2879526.

Residue numbers refer to the chain shown, from its start.

The target in data set [1] is T1, THAP zinc finger of hTHAP1 (C62S/C67S) (Homo sapiens, UniProt Q9NVV9 1-81, C62S;C67S).
T1 sequence: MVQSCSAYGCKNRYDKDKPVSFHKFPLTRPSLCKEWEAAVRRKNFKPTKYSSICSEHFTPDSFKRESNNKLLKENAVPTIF
The data set is described as follows: fluorescence anisotropy. Background: Polarisation of emitted light reports the rotation of a fluorescent probe.

For data set [2], the target named is T2, THAP zinc finger of hTHAP1 K24A (Homo sapiens, UniProt Q9NVV9 1-81, K24A).
T2 sequence: T1 sequence with K24A, S62C, S67C
The data set can be described thus: fluorescence anisotropy.

B1: rrm1 16-bp (THABS) (dsDNA)
DNA 1: GCTTGTGTGGGCAGCG
DNA 2: CGCTGCCCACACAAGC
Consider B1, for which the dissociation constant (Kd) in data set [1] is 480 ± 60 nM.

B2: non-specific 16-bp DNA (dsDNA)
DNA 1: CGATTTGAATTTTAAC
DNA 2: GTTAAAATTCAAATCG
With B2, in data set [2], the binding result was “binds”.

The Kd is a measure of binding affinity in units of concentration. Read a high Kd as weaker binding.
